The target of this test is denatured human type I collagen (gelatin) (human) (UniProt P02452). Briefly: ELISA.
denatured human type I collagen (gelatin) (human), sequence (P02452 162-1218, chain 1 of 2): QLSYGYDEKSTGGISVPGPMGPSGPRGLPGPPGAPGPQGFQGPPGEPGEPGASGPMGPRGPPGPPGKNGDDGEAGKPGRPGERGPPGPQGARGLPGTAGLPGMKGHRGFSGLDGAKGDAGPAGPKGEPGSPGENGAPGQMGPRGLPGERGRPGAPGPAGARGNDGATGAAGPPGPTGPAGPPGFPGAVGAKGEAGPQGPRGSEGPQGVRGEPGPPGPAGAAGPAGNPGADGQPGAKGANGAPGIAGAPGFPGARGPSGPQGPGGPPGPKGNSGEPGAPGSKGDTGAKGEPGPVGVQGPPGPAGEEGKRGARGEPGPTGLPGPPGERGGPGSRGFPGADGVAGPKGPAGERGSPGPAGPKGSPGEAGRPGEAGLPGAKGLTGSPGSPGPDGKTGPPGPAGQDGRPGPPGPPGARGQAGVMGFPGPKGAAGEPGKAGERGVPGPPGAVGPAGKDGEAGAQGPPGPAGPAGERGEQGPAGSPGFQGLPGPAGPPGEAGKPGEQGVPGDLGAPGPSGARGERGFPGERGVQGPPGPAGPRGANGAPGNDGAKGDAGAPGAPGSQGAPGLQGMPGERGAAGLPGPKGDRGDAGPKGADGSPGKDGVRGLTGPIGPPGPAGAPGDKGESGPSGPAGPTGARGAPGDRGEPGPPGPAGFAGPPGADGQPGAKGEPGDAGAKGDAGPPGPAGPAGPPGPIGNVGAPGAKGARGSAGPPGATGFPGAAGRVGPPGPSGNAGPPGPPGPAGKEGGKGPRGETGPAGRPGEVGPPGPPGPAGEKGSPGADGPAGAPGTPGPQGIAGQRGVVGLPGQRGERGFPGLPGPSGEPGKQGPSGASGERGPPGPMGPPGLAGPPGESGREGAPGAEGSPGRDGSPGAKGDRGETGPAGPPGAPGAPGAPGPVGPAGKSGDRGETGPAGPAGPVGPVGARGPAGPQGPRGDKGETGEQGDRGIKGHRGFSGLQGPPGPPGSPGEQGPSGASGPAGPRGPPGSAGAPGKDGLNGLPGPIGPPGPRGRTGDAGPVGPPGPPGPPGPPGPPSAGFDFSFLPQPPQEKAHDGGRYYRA
denatured human type I collagen (gelatin) (human), sequence (P08123 80-1119, chain 2 of 2, further chain): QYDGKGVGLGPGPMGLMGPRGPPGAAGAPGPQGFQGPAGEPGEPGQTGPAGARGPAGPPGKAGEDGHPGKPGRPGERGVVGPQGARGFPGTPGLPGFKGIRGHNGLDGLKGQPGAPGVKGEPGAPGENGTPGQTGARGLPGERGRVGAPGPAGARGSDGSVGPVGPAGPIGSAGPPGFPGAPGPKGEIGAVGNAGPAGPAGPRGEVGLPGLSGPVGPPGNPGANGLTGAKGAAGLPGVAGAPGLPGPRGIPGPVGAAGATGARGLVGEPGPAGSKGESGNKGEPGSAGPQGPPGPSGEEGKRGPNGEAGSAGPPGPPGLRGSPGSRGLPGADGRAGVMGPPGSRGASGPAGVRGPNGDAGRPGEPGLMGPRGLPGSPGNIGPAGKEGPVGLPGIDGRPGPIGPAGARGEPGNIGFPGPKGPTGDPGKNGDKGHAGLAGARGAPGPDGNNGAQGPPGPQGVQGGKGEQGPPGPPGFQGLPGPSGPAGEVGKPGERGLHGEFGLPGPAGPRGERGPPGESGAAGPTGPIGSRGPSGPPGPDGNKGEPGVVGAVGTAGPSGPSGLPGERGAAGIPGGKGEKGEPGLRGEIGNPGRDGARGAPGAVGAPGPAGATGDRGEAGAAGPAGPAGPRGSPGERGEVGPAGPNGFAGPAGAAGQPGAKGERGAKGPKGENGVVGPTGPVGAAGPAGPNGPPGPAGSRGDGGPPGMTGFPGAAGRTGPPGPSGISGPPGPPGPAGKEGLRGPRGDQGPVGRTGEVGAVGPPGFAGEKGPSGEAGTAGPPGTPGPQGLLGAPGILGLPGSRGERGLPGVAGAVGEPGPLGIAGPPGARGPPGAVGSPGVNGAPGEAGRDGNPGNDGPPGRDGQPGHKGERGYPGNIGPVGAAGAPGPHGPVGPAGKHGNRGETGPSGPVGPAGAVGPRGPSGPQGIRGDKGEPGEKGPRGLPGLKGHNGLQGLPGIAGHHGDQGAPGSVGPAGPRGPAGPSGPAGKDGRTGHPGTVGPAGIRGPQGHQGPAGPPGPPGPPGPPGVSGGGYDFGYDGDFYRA
Consider “MMP-2 F297A (variant of MMP-2Δpro, CBD module 2) (from UniProt P08253 30-660) (enzyme)”, for which the equilibrium dissociation constant (Kd) (as a rule, a measure of binding affinity in units of concentration) is 2.8 nM. The figure for “MMP-2 F297A/R368A (variant of MMP-2Δpro, CBD modules 2+3) (from UniProt P08253 30-660) (enzyme)” is 37.6 nM; for “MMP-2 R252A (variant of MMP-2Δpro, CBD module 1) (from UniProt P08253 30-660) (enzyme)” it is 2.58 nM. The figure for “MMP-2 R252A/F297A (variant of MMP-2Δpro, CBD modules 1+2) (from UniProt P08253 30-660) (enzyme)” is 5.84 nM; for “MMP-2 R252A/R368A (variant of MMP-2Δpro, CBD modules 1+3) (from UniProt P08253 30-660) (enzyme)” it is 7.49 nM; for “MMP-2 R368A (variant of MMP-2Δpro, CBD module 3) (from UniProt P08253 30-660) (enzyme)” it is 3.56 nM. “MMP-2Δpro (constitutively active matrix metalloproteinase-2 without the prodomain; wild-type) (from UniProt P08253 30-660) (enzyme)” registered a dissociation constant (Kd) of 1.03 nM.
